Assay results from patent publication US20160244499A1.
pKd: −log10 of the molar value. Blank lines part the entries; values can stand above or below the substance they belong to.

Experiments:
[1] = biological target: C-terminally biotinylated IL-13Rα1 ectodomain (human) (UniProt P78552); assay: Table 1, affinity for IL-13Rα1; method for this row not stated
[2] = biological target: C-terminally biotinylated IL-13Rα1 ectodomain (human) (UniProt P78552); assay: SPR (Biacore T100), biotinylated IL-13Rα1 on SA chip, cytokine/IL-4Rα complex as analyte
[3] = biological target: C-terminally biotinylated γc ectodomain (human) (UniProt P31785); assay: SPR (Biacore T100), biotinylated γc on SA chip, cytokine/IL-4Rα complex as analyte, 1:1 model
[4] = biological target: C-terminally biotinylated γc ectodomain (human) (UniProt P31785); assay: SPR, cytokine/IL-4Rα complex on immobilised γc
[5] = biological target: C-terminally biotinylated γc ectodomain (human) (UniProt P31785); assay: SPR, comparison of affinities for γc and IL-13Rα1
[6] = biological target: T1, γc on human cell lines (Ramos, HH, U937) (human) (UniProt P31785); assay: cell-based or functional assay
T1 sequence (looked up): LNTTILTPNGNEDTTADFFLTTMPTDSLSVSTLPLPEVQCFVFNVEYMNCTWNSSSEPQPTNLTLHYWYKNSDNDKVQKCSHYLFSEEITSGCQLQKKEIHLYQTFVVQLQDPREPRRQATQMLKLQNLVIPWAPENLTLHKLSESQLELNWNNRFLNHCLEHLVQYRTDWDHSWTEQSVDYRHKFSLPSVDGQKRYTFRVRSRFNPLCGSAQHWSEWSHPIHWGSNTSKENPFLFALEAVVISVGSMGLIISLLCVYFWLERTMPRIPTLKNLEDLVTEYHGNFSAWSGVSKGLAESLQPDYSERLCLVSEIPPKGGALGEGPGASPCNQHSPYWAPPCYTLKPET

[7] = biological target: C-terminally biotinylated IL-13Rα1 ectodomain (human) (UniProt P78552); assay: SPR (Biacore T100), biotinylated IL-13Rα1 on SA chip, cytokine/IL-4Rα complex as analyte, 1:1 model

wild-type IL-4, free recombinant cytokine, sequence (P05112 other isoform, or with tags, fused parts or gaps): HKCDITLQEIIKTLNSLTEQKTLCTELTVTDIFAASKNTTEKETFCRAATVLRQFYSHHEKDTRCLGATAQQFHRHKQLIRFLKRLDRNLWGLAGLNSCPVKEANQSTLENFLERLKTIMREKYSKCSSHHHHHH

pKd [1]: 7.52
Substance: IL-13 (from UniProt P35225 35-146) (ligand)

pKd [2]: 4.68 | pKd [3]: 9.05 | koff [3]: 0.00059 s⁻¹ | kon [3]: 660000 M⁻¹ s⁻¹ | fold faster on-rate (against IL-4) [4]: 6 fold | fold higher affinity (against IL-4/IL-4Rα) [4]: 3700 fold | logs gained in binding affinity (against IL-4) [4]: 4 log | selectivity for the Type-I receptor complex over the Type-II receptor [5]: 6 log
Substance: RGA/IL-4Rα binary complex (from UniProt P24394 26-202)

mean MFI of STAT6 phosphorylation, Ramos cells, 100 pg/ml, 20 minute stimulation [6]: 7.7 MFI | percentage decrease in STAT6 phosphorylation caused by 50 µg/ml of anti-γc, Ramos cells, 100 pg/ml cytokine [6]: 58% | reduction in STAT6 phosphorylation on blocking γc in U937 cells [6]: 44%
Substance: wild-type IL-4, free recombinant cytokine (from UniProt P05112 25-153) (ligand)

pKd [3]: 5.48 | koff [3]: 0.31 s⁻¹ | kon [3]: 95000 M⁻¹ s⁻¹ | pKd [7]: 5.38 | koff [7]: 0.17 s⁻¹ | kon [7]: 41000 M⁻¹ s⁻¹
Substance: wild-type IL-4/IL-4Rα binary complex (from UniProt P24394 26-202)
